Assay: soluble on expression in E. coli; label from the status in PepcDB or PDB records

| Sequence | soluble on expression in E. coli |
| --- | --- |
| MKLSPVSAAVLSVLAAGFAHAETEPSHYEEVVVTANRIEQPLSEVAGSVAVLEGETLEKQGKTELYDALNQEPGVSVTGGAGRPQNITIRGMTGNRIAIVRDGIQSADGYGAADINDKYGRNTFSLSNVKQIQVVKGASSTLYGSGAIGGVVIIESKAPEDYLYHRDYYVDAALTYSGISNRYQGNHALAMRHGDGEALLTIDYWQGEETRNFNQDLYNREVDGYNLGFSHHYWLNDALRLKTHLEYFDDYAKRREGTSSIQKDDKWDLVSFYEYQRSQTRLASVGADYTANLSWMDTLEGKFYWRSTENITQTNRLMANDRSGAGILSYRRELRDEGFNDEALGATLNAQKEWQQGEWLHQFAYGMSVDGHDYQRPKSIRRMESSGDDLQADEPFAPAREYRFGVYGQDNLLLGDWTLAAGLRFDAQKLSPKNTDRIHGYKVVTMGSSEWSPSASISYQWHPEWNTYLSYNHGFRAPSYDKAYGASDHSFVPLTPFIIKPNNKLRAETSDSFELGSKYDNGQTQFYVAVFYSIFDNFIDVKQVGYDNATGSVIQQYQNIAGVKTYGAEMSVMHRLDDRWSVENKLGYVDGKDGENQYVRTLTPLEGSVQLNYQRERWDAYSRLNWASAMSRVPTCTTEQGKETECATTTGWVSWDIGLNYQWNAQLSASFNVVNLLDREYTRYQDVAGVTPSDTLYSTEPGRYFTVHAKYVF | not soluble |
| MNKHTTLPNLMQKIVSDEDLQSIIEAVGYHDTSRTFTVRTLVDFFLLAALHEWKSFRHGADVAKMYGLPTFHYSTVSKKAKEVPYEVMKRLFALVVSKCNRQTRRSLRFPKALRVVDSTTVTVGKNRLAWAPYHGERSGVKMHVAYSPEQQMPSDIVETVGLRHDGPVGEQLTDAQSVLVEDRAYFKIERIARFVEQKPPFVFG | not soluble |
| MEEMMMNDPSAMVIYEEEVTTAPNLPCSLIQQRSWDEEKPIGYELTNTKCYKTPNGVQKTATIQREQLSTSKDFGEQQIVEMDGEFSIEGTDMHAIPCTSSSMQPSTSSNPSSGEHQPVPLRRMAIKIGQRVLRFKVISAEEAPEAPLDTQDSWINDPKPVTTPKALAGLYRCTNCKTYFGNKEVYQRHIQEVHGDARPFRCFNCGMRFANKTSMTHHLKDHSLLKPMFSCDYCPRIFSKLESKTRHHKMHFTRSTCQTCMRFFTTEDALRHHQSTAHPATFDSGPPPEDLLPNGKSARYSCSYCNLRFHFKKDMLVHERIHTGEKPYSCGYCMKSFAQSQALTAHIRTHTKELPYGCGKCDKRFRDNSCLRKHELAAHTDEPIVRPISVAYSNQVQKQMQRQRENRRKQELLIAERHPYRI | not soluble |
| MAHHHHHHMALVQSHYGSDAIHTRLNDDPPSSEEIERRRGAGCLPYSNRLVHRLVVLPVTPPSIYEGETTQSPVETQGTHNERRANERDRQRRARYASLLRSHYVPLVPFSTFTEPQERSFKLPTISKYPAARRQPQFAQSEEDYMMCGGFYPGPDQYDHRGGPRLGVMQQHTVQLERVHSRHVAPPPSRLINAPGNEDMLFPI | not soluble |
| MGSDKIHHHHHHMSELLGLIVDARPLQAHFRIPHTSLLLDTYPFPPKTTAVGMLAGCMGLGEEGFKKLLEKIKYGVIIEDPGEKIEEVSVIYKNPYSPSYPITRVSLYKPRFRMFFAGEERVIEEAYEGLLDPKFVPYMGDSESLFYPGKKRYVEVVDVQEGKEDILRSVIPEVKFKEFVPLRRKVLVPKVYEAPVKFTYKGKSRRAVYGRFIAFSGGYVKLEKKIDVLLFDGEPIATF | not soluble |
| MGMDQSRLMSGAAGGALVLMGLKKRGVLGLLMTVGGGYLAYKAATGKDPVMEAAGLTGSAGAAKPIFVEHSIVIDRPAQQVYDYWRKLENLPQIMSHLESVTVLDDKRSRWVAKAPLGTHVEWEAEVVNDKPGERIGWHSLPGATVDNAGSVQFESLPDDKTRVHVALSYRPPAGPLGAAVAKLFGEEPSQQIAEDLQKFKATFEGLEHHHHHH | soluble |
| MSTPTGQPIGLGLPDAPLPVLAPRRKTRQLMVGNVGVGSDYPVSVQSMTTTKTHDVNATLQQIAQLTASGCDIVRVACPKTVDAEALPAIAKKSPIPVIADIHFQPKYIFSAIDAGCAAVRVNPGNIKEFDGRVKEVAKAAGDAGIPIRIGVNAGSLDKRIMEKYGKATPEALVESALWEAGLFEDCGFGDIAISVKHNDPVIMVEAYRQLAAQSDYPLHLGVTEAGPAFQGTIKSSVAFGSLLSQGIGDTIRVSLSADPVEEIKVGDQILQSLNLRKRGLEIVSCPSCGRAQVDVYSLAEEVTAALDGMSIPLRVAVMGCVVNGPGEARDADLGVASGNGKGQIFVRGEVIKTVPESQIVETLIEEAVRLAEAEGLEIEEGAGPQVKITR | not soluble |
| MELISVTKDNLEQEHICCAISNNKDCQVLSKKNWLNEQFEDGLVFLKGNVRGKCFIEYMPAEKAWAPVEADGYMYINCLWVSGQFKGQGYSNLLLEECIRDSREKGRLGLVVLTSKKKMPYLSDPKFLGYKGFIRADSAEPYFELFYLPFEADAPKPQFKEQVRQPRTEENGFVLYYTRQCPFTAKYVPLIESAAEENNIPFKAVLFKTSGEARNAPAPFTTYSLFYNGRFITNEILSEKRFEKILEAEGLG | not soluble |
| MSYNLLGFLQRSSNFQSQKLLWQLNGRLEYCLKDRMNFDIPEEIKQLQQFQKEDAALTIYEMLQNIFAIFRQDSSSTGWNETIVENLLANVYHQINHLKTVLEEKLEKEDFTRGKLMSSLHLKRYYGRILHYLKAKEYSHCAWTIVRVEILRNFYFINRLTGYLRN | not soluble |
| MGSDKIHHHHHHMRKVAIYSRVSTINQAEEGYSIQGQIEALTKYCEAMEWKIYKNYSDAGFSGGKLERPAITELIEDGKNNKFDTILVYKLDRLSRNVKDTLYLVKDVFTANNIHFVSLKENIDTSSAMGNLFLTLLSAIAEFEREQIKERMQFGVMNRAKSGKTTAWKTPPYGYRYNKDEKTLSVNELEAANVRQMFDMIISGCSIMSITNYARDNFVGNTWTHVKVKRILENETYKGLVKYREQTFSGDHQAIIDEKTYNKAQIALAHRTDTKTNTRPFQGKYMLSHIAKCGYCGAPLKVCTGRAKNDGTRRQTYVCVNKTESLARRSVNNYNNQKICNTGRYEKKHIEKYVIDVLYKLQHDKEYLKKIKKDDNIIDITPLKKEIEIIDKKINRLNDLYINDLIDLPKLKKDIEELNHLKDDYNKAIKLNYLDKKNEDSLGMLMDNLDIRKSSYDVQSRIVKQLIDRVEVTMDNIDIIFKF | not soluble |
| MNNTVKTDGDSVSGRDLPITKISEDRFERSAYSAQLANIICDVAPWGASTVFSLTGQWGSGKTSLVNLIRSEESLSNEKWTIVDFNPWVASDPQSLIEEFYRVIVGTVPDDKTGQKIKTVLQKTFSTIGSIAGGVGGFGVLEALALSKGVDAANAVYKTWKQEQDSWPTLYTRAANHFKDLNKRILIVVDDIDRLHTDELALLMKVIRLLGRFPQVNYLLVYEEESLLTTLARSTAVGGSEDDALRFMEKIVQYPFDVPPLTSFQIEKELSALFDKLFQGVSLSGDPEDFALVKSRMFDVWEKTLVTPRLLHRFAALLTNWTRIYGSGEVNGVDLTILATIRIVFPSVYKRLSRAKEVLLQGGRTTGLEHHHHHH | soluble |
| MAHHHHHHMAEHLLEQLRDVMVLQPSDGAVGNGEMDTSAANSHKYSVVSTFTNSPFVAVLEDTENNEDDEKELIRLLDELSHRIHCSDAADDVERPSGSFAVEKVEAPTLRASHMAPPIYGSPAPAGGSPFNYASCVSQTTKPPPSFAEAVATTPPLSEVPVELSPLAAHYVPPMPAVQQDPILLRNTHGVFMLRPITKPTPPYTPPSLTSSISQPPRYALPPAALPQSQPHFLGSSLAQVGGLADAQIPKKSSFSPYEIPHSMNNVIGGSQILGTGGAGNYTYISTSVKSKSTSHMQPPPPYPS | not soluble |
| MGSDKIHHHHHHMFEPFPGNYVWNLGINLALIAGGNHGELDEVCRPVREAAKAGADAGSALLFDSWIAVADQVTRNAERDEAEGFLLSAGAKYLRASGYYLGAERLQSRDYAPRWVAYDKGLELYHKGSALSGLHVDKVEIPYEGSSYPAIFVHDGSGTPRPTLVSVNGLDSMKEQVNMAGHGAVNLARGMNTLFLDQPGTGEAIRKRNLPAVFDAERWGSPAFDYLLTRSDVIHSQIGIFGLSFGGYHAPRIAANDPRYALCAVMGANHVWGQRQRERVANEGENPVPHYWDHVMWVFGIDDQAAFLEYADQITLDGQVEKIRVPFLITHGENDRQIPAYNAQMSYDQAVNSPKRTLRIFTRADFEVEHCGADNGTGMRDYIADWCAQTFAEMAGNKG | not soluble |
| NSPITIGLALNKKLNNHWSIETGLQYIYLKSEFTTGKEYRIQKTQKLHYIGIPLRISYRFGNYKQFSFYSTAGLQMEIPIKGTLHTSHVTDSVPINLGYQSLDVPLQWSINASTGVQYHFTPHTSIYIEPTINYYIPDGSSLRTIRKEHPVTFSVPVGIRFSW | not soluble |
| MGGSHHHHHHGMASALAPKQDPKPKFQEGERVLCFHGPLLYEAKCVKVAIKDKQVKYFIHYSGWNKNWDEWVPESRVLKYVDTNLQKQRELQKANQEQYAEGKMRGAAPGKKTSGLQQKNVEVKTKKNKQKTPGNGDGGSTSETPQPPRKKRARVDPTVENEETFMNRVEVKVKIPEELKPWLVDDWDLITRQKQLFYLPAKKNVDSILEDYANYKKSRGNTDNKEYAVNEVVAGIKEYFNVMLGTQLLYKFERPQYAEILADHPDAPMSQVYGAPHLLRLFVRIGAMLAYTPLDEKSLALLLNYLHDFLKYLAKNSATLFSASDYEVAPPEYHRKAV | not soluble |
| MAHHHHHHMSSSSSALDVPLVEVICSYPTREGLCAECPALLLLVYEHVVAELQAGRRAVDVFRGTSRQDHLSELLAVRSLSELFERLYPLSQSCILDESTASSQFWRQARVTLEAAWAAPHDAKGRALLTQVRGQPRFHFCGPRDVETPGEGYPLHPVSLERALATSKRFLRTAMTCALDGSTDALAGRQPELRAVLQLAHLVPLTPSTGAPPRKEVTPEGLSFCMVSLQQRWWILVNAALERVLLLTRAAVNGNGNTSGSSGVTKPLLWQLLAVLSVLDTTQYVFAFPERQQDLAAHHLLARLSEVGLVYPLLSNDRKCFVLSPDFLHAIHWHASAPLSLTFNHHLLRSASGVSGAGIGDLRREDTDTIITETNFRLFAYTNDADLLNILNQFAELEEIVNGNLHCYRVTRASFAAAMRKGITAAQVLRFLSLRAHPSMLRRHGEREENGDTASPSSAGGASSSFTFSASPRRGAVAGTCGSTTSIDAVSTLVVPQSFCDQMRMWESECRRVVFEHHVVLLRNMSTQQQKAVTAYLTDAGEVDAVVHAERGYMVIREEVFERLVAPLLG | not soluble |
| GPLHMKAVVPGPAEHPLQYNYTFWYSRRTPGRPTSSQSYEQNIKQIGTFASVEQFWRFYSHMVRPGDLTGHSDFHLFKEGIKPMWEDDANKNGGKWIIRLRKGLASRCWENLILAMLGEQFMVGEEICGAVVSVRFQEDIISIWNKTASDQATTARIRDTLRRVLNLPPNTIMEYKTHTDSIKMPGRLGPQRLLF | soluble |
| MSTKEEITKEIEEQGAEVRRVKGDKNSTEEAKKEAIDKLLALKLTYKEVTGQEYAAPNARQSKPKKEEKPKQQPKQQEKKQDGKKQTLLGVGTKKDDNYSEWYSEVITKAEMIEYYDVSGCYVLRPWSFAVWESIQEWFDSGIKKLGVKNCYFPMFVSNAALEREKTHIADFAPEVAWVTRAGNSEMAEPIAIRPTSETVMYPSYKKWVQSHRDLPIKLNQWCNVVRWEFKHPTPFLRTREFLWQEGHTAFANPADAEKEVFQILDLYAGVYTDLLAIPVVKGRKSEKEKFAGGDFTTTVEAYVACNGRGIQGATSHHLGQNFSKMFDISYEDPAKEGERAFAWQNSWGLSTRTIGAMVMIHGDDKGLVLPPRVAAVQVIVVPVGFKTENKQSLFDAVDKVTKDLVADGVKAEHDLRENYNAGWKFNHWELKGVPIRFEVGPNDLAKNQVTAVIRHNGEKKQLSLEGLSKTVKSLLDEIHTAMYNKVLAQRDSHLKSTTCIEEFKKLLDEKCIILSPFCGRPDCEEEIKKASTREDGEGAQMGAKTLCIPLDQPKQELPSKCLFPSCTYNAKAFALFGRSY | not soluble |

From the DeepSol protein solubility set
